Columns and labels:
[1] = molecular target: beta-amyloid protein (BAP) residues 1-28, synthetic peptide (Homo sapiens (Human)) (UniProt P05067); assay: BAP (1-28) affinity column after heparitinase/heparinase digestion
[2] = molecular target: β/A4 (1-28) with three amino acid substitutions of the putative heparin binding domain (histidine, histidine and lysine changed to glycine) (UniProt P05067); assay: affinity column chromatography of 125I-HSPG, mutated versus normal β/A4 (1-28) column
[3] = molecular target: beta-amyloid protein (BAP) residues 1-28, synthetic peptide (Homo sapiens (Human)) (UniProt P05067); assay: BAP (1-28) affinity column, no unlabeled competing ligand
[4] = molecular target: beta-amyloid protein (BAP) residues 1-28, synthetic peptide (Homo sapiens (Human)) (UniProt P05067); assay: competition with 125I-HSPG for binding to the BAP (1-28) affinity column

Sequence of beta-amyloid protein (BAP) residues 1-28, synthetic peptide (Homo sapiens (Human)) (P05067 672-699 limits assumed): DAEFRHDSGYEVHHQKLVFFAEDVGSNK

Question: Which percent still able to bind in comparison to undigested controls [1] does the source give for “heparitinase/heparinase-digested 125I-labeled HSPG, A0AAA9TDR0 23-4401” here?
Answer: Its percent still able to bind in comparison to undigested controls is 61%.

Question: How did the percent decrease in binding against normal β/A4 (1-28) [2] turn out when “high Mr heparan sulfate proteoglycan (HSPG) isolated from the culture media of bovine aortic endothelial cells (from UniProt A0AAA9TDR0 23-4401)” was run?
Answer: The percent decrease in binding against normal β/A4 (1-28) was 50 to 60%.

Question: With “high Mr heparan sulfate proteoglycan (HSPG) isolated from the culture media of bovine aortic endothelial cells, A0AAA9TDR0 23-4401” as the substance, how does the percent bound [3] read?
Answer: Its percent bound is 21.6%.

Question: With “low density heparan sulfate proteoglycan isolated from the mouse Engelbreth-Holm-Swarm (EHS) sarcoma (perlecan), Q05793 22-3707” as the substance, how does the IC50 [4] read?
Answer: The IC50 was < 1 µM.

Reference: patent US6340783
